Consider one molecule from US5869271A, “G-beta-gamma regulated phosphatidylinositol-3' kinase” (Onyx Pharmaceuticals, priority 1997, dated 1999).

The data set deals with free p120 PI3K catalytic subunit (Sus scrofa, UniProt O02697). Put plainly: PI3K assay on free recombinant p120 (Sf9-derived). It is filed as biochemical, porcine.
Sequence of free p120 PI3K catalytic subunit (O02697 whole entry): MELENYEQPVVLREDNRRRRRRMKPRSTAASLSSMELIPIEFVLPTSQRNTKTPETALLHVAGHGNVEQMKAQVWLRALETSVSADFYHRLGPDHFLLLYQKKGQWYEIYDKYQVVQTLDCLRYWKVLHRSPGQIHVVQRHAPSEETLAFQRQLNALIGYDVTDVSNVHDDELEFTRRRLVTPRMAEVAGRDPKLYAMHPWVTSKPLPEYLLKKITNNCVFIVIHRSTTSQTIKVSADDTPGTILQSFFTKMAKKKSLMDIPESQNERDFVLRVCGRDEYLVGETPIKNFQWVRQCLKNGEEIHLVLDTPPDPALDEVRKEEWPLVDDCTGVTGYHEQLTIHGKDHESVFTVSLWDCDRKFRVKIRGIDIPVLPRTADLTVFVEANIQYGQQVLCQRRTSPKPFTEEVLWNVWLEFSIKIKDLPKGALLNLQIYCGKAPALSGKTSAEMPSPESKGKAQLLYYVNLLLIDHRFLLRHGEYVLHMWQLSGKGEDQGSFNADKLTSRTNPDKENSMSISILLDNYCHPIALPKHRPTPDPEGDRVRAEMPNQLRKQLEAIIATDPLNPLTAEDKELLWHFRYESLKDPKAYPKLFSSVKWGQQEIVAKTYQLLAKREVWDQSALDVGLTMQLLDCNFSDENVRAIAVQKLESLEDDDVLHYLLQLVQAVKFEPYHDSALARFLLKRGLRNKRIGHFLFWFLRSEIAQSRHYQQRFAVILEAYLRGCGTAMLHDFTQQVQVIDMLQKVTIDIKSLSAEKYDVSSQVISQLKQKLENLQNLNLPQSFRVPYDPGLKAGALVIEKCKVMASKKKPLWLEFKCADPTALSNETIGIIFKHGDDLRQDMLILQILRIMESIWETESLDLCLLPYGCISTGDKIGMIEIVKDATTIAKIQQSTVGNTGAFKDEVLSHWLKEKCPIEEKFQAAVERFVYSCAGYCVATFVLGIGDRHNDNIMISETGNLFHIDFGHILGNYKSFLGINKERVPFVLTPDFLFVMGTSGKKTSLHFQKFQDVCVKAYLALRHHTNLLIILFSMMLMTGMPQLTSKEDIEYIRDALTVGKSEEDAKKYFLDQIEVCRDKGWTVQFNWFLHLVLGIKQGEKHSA

Experimental: Assays contained either 7 nM p101/p120 or 36 nM p120 alone (final concentrations) which were incubated with various reagents; 10 mM NaF and 30 μM AlCl3 (A/F) ; 1 μM Gβγ-subunits (βγ); 2 μM Gα-GDP; 100 nM wortmannin (W) or 50 μM tyrosine phosphorylated peptide (PY) for a total of 15 minutes (at 0° C.) prior to starting the assays by adding [γ^32 P]-ATP; [^32 P]-incorporated into [^32 P]-PtdIns(3,4,5) P3 was quantified. The data shown are means (n=2).
Purified aliquots of Sf9 -derived or pig neutrophil cytosol-derived PI3K were diluted in ice-cold 0.12M NaCl, 25 mM HEPES, 1 mM EGTA, 1 mM DTT, 1 mg-ml^-1 BSA, 1% betaine, 0.02%, w/v, Tween-20, pH 7.4, 0° C. to an appropriate extent, then 5 μl aliquots were stored on ice until assayed. […] 30 μl of a mixture of phospholipids with or without Gβγs and/or Gαs (either GDP-bound or activated) was added to the 5 μl fractions, or 10 μl of beads, and mixed. After 10 minutes on ice, 5-10 μl of last wash buffer, supplemented with MgCl2 to give a final concentration in the extant assay volume of 3.5 mM, was added and mixed. Six minutes later, 5 μl of last wash buffer was added (to give a final assay volume of 50 μl) containing [^32 ]-ATP (typically 10 μCi assay^-1, Amersham, PB10168) and 3.5 mM MgCl2, tubes were mixed and transferred to a 30° C. water bath. […]

B1: p120: catalytic subunit of the G protein-regulated PI3K; the b332 result is for the form after complete thrombin cleavage (protein)
chain: MELENYEQPVVLREDNRRRRRRMKPRSTAASLSSMELIPIEFVLATSQRNTKTPETALLHVAGHGNVEKMKAQVLLRALETSVSWDFYHRFGPDHFLLVFQKKGEWYEIYDKYQVVQTLDCLRYWEVLHRSPGQIHVVQRHAPSEETLAFQRQLNALIGYDVTDVSNVHDDELEFTRRRLVTPRMAEVAGRDPKLYAMHPWVTSKPLPEYLLKKITNNCVFIVIHRSTTSQTIKVSADDTPGTILQSFFTKMAKKKSLMDIPESQNERDFVLRVCGRDEYLVGETPIKNFQWVRQCLKNGEEIHLVLDTPPDPALDEVRKEEWPLVDDCTGVTGYHEQLTIHGKDHESVFTVSLWDCDRKFRVKIRGIDIPVLPRTADLTVFVEANIQYGQQVLCQRRTSPKPFTEEVLWNVWLEFSIKIKDLPKGALLNLQIYCGKAPALSGKTSAEMPSPESKGKAQLLYYVNLLLIDHRFLLRHGEYVLHMWQLSGKGEDQGSFNADKLTSGTNPDKEDSMSISILLDNYCHPIALPKHRPTPDPEGDRVRAEMPNQLRKQLEAIIATDPLNPLTAEDKELLWHFRYESLKDPKAYPKLFSSVKWGQQEIVAKTYQLLAKREVWDQSALDVGLTMQLLDCNFSDENVRAIAVQKLESLEDDDVLHYLLQLVQAVKFEPYHDSALARFLLKRGLRNKRIGHFLFWFLRSEIAQSRHYQQRFAVILEAYLRGCGTAMLHDFTQQVQVIDMLQKVTIDIKSLSAEKYDVSSQVISQLKQKLENLQNLNLPQSFRVPYDPGLKAGALVIEKCKVMASKKKPLWLEFKCADPTALSNETIGIIFKHGDDLRQDMLILQILRIMESIWETESLDLCLLPYGCISTGDKIGMIEIVKDATTIAKIQQSTVGNTGAFKDEVLSHWLKEKCPIEEKFQAAVERFVYSCAGYCVATFVLGIGDRHNDNIMISETGNLFHIDFGHILGNYKSFLGINKERVPFVLTPDFLFVMGTSGKKTSLHFQKFQDVCVKAYLALRHHTNLLIILFSMMLMTGMPQLTSKEDIEYIRDALTVGKSEEDAKKYFLDQIEVCRDKGWTVQFNWFLHLVLGIKQGEKHPA
On to B1, for which the “reduction of p120 PI3K catalytic activity by removal of about 40 amino terminal residues (thrombin cleavage)” value was 20-30%.
